Molecular target: T1, RPP29 (coexpressed with RMP24 in bacteria) (human, UniProt O95707 1-220)
T1 construct: RPP29 (POP4), human; codon-optimized bicistronic cassette with C18orf21/RMP24 in pGEX-6P-1; The pGEX-6P-1 vector adds GST to one of the two chains; Elution was by PreScission protease or by reduced glutathione; also called POP4; source: E. coli BL21-DE3, coexpressed with RMP24, purified (Glutathione-Agarose, S200 increase)
T1 sequence: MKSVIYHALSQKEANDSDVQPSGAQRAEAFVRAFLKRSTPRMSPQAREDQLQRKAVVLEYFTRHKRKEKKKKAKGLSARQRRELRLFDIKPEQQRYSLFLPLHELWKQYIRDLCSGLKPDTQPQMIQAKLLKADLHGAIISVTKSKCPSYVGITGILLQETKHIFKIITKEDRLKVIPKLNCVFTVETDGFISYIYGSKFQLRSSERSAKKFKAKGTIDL
Test: SEC; RMP24 and RPP29 coexpressed in E. coli, isolated on Glutathione-Agarose, then passed over a Superdex S200 increase 10/300 GL column in 25 mM Tris HCl pH 8, 100 mM NaCl, 1 mM DTT; peak fractions on Coomassie-stained SDS–PAGE and LC–MS
Details: both partners purified

binding result: binds
B1: RMP24 (coexpressed with RPP29 in bacteria) (natural protein, human, UniProt Q32NC0 1-220, looked up)
chain: MRQKHYLEAAARGLHDSCPGQARYLLWAYTSSHDDKSTFEETCPYCFQLLVLDNSRVRLKPKARLTPKIQKLLNREARNYTLSFKEAKMVKKFKDSKSVLLITCKTCNRTVKHHGKSRSFVSTLKSNPATPTSKLSLKTPERRTANPNHDMSGSKGKSPASVFRTPTSGQSVSTCSSKNTSKTKKHFSQLKMLLSQNESQKIPKVDFRNFLSSLKGGLLK
notes: C18orf21 (RMP24), human; codon-optimized bicistronic cassette with RPP29 in pGEX-6P-1; The pGEX-6P-1 vector adds GST to one of the two chains; also called C18orf21; full-length RMP24; source: E. coli BL21-DE3, coexpressed with RPP29, purified (Glutathione-Agarose, S200 increase)

From paper PMC12819141, “RNase MRP subunit composition and role in 40S ribosome biogenesis” (Nature Structural & Molecular Biology, 2025)
